± gives the uncertainty stated by the source.

B1: Formin-binding protein 4, residues 200 to 261; numbered along this chain, Q8N3X1 (parent)
chain: SGWQYDTQCSLAGVGIEMGDWQEVWDENTGCYYYWNTQTNEVTWELPQYLATQVQGLQHYQP

The variants in the data set derive from B1. The data set is described as follows: abundance fitness (aPCA) (normalised: wild type 0, dead -1); higher = more abundant; growth selection in yeast, the domain comes from the species named. Conditions: Homo sapiens.
On to SGWQYDTQCSLAGVGIEMGDWQEVWDANTGCYYYWNTQTNEVTWELPQYLATQVQGLQHYQP [E27A], for which the abundance fitness is 0.043 ± 0.064.

Take SGWQYDTQCSLAGVGIEMGDWQEVWDCNTGCYYYWNTQTNEVTWELPQYLATQVQGLQHYQP [E27C]: the abundance fitness was -0.213 ± 0.1.

On to SGWQYDTQCSLAGVGIEMGDWQEVWDHNTGCYYYWNTQTNEVTWELPQYLATQVQGLQHYQP [E27H], for which the abundance fitness came to 0.516 ± 0.11.

In the case of SGWQYDTQCSLAGVGIEMGDWQEVWDDNTGCYYYWNTQTNEVTWELPQYLATQVQGLQHYQP [E27D], the abundance fitness came to 0.101 ± 0.095.

For SGWQYDTQCSLAGVGIEMGDWQEVWDINTGCYYYWNTQTNEVTWELPQYLATQVQGLQHYQP [E27I], the abundance fitness is -0.174 ± 0.13.

Turning to SGWQYDTQCSLAGVGIEMGDWQEVWDFNTGCYYYWNTQTNEVTWELPQYLATQVQGLQHYQP [E27F], the abundance fitness was -0.319 ± 0.12.

As for SGWQYDTQCSLAGVGIEMGDWQEVWDGNTGCYYYWNTQTNEVTWELPQYLATQVQGLQHYQP [E27G], the abundance fitness was -0.066 ± 0.063.

Turning to SGWQYDTQCSLAGVGIEMGDWQEVWLENTGCYYYWNTQTNEVTWELPQYLATQVQGLQHYQP [D26L], the abundance fitness is -0.5 ± 0.072.

For the variant SGWQYDTQCSLAGVGIEMGDWQEVWIENTGCYYYWNTQTNEVTWELPQYLATQVQGLQHYQP [D26I], the abundance fitness is -0.593 ± 0.13.

With SGWQYDTQCSLAGVGIEMGDWQEVWEENTGCYYYWNTQTNEVTWELPQYLATQVQGLQHYQP [D26E], the abundance fitness is -0.148 ± 0.077.

For the variant SGWQYDTQCSLAGVGIEMGDWQEVWWENTGCYYYWNTQTNEVTWELPQYLATQVQGLQHYQP [D26W], the abundance fitness was -0.256 ± 0.092.

In the case of SGWQYDTQCSLAGVGIEMGDWQEVWQENTGCYYYWNTQTNEVTWELPQYLATQVQGLQHYQP [D26Q], the abundance fitness was -0.181 ± 0.097.

For the variant SGWQYDTQCSLAGVGIEMGDWQEVWVENTGCYYYWNTQTNEVTWELPQYLATQVQGLQHYQP [D26V], the abundance fitness was -0.384 ± 0.067.

As for SGWQYDTQCSLAGVGIEMGDWQEVWSENTGCYYYWNTQTNEVTWELPQYLATQVQGLQHYQP [D26S], the abundance fitness was -0.007 ± 0.061.

SGWQYDTQCSLAGVGIEMGDWQEVWCENTGCYYYWNTQTNEVTWELPQYLATQVQGLQHYQP [D26C]: the abundance fitness is -0.228 ± 0.095.

As for SGWQYDTQCSLAGVGIEMGDWQEVWGENTGCYYYWNTQTNEVTWELPQYLATQVQGLQHYQP [D26G], the abundance fitness is -0.373 ± 0.068.

Regarding SGWQYDTQCSLAGVGIEMGDWQEVWKENTGCYYYWNTQTNEVTWELPQYLATQVQGLQHYQP [D26K], the abundance fitness is -0.345 ± 0.12.

On to SGWQYDTQCSLAGVGIEMGDWQEVWRENTGCYYYWNTQTNEVTWELPQYLATQVQGLQHYQP [D26R], for which the abundance fitness was -0.515 ± 0.078.

Regarding SGWQYDTQCSLAGVGIEMGDWQEVWYENTGCYYYWNTQTNEVTWELPQYLATQVQGLQHYQP [D26Y], the abundance fitness is -0.322 ± 0.12.

As to SGWQYDTQCSLAGVGIEMGDWQEVWFENTGCYYYWNTQTNEVTWELPQYLATQVQGLQHYQP [D26F], the abundance fitness is -0.296 ± 0.12.

On to SGWQYDTQCSLAGVGIEMGDWQEVWAENTGCYYYWNTQTNEVTWELPQYLATQVQGLQHYQP [D26A], for which the abundance fitness was -0.176 ± 0.066.

Take SGWQYDTQCSLAGVGIEMGDWQEVWMENTGCYYYWNTQTNEVTWELPQYLATQVQGLQHYQP [D26M]: the abundance fitness was -0.09 ± 0.088.

In the case of SGWQYDTQCSLAGVGIEMGDWQEVWNENTGCYYYWNTQTNEVTWELPQYLATQVQGLQHYQP [D26N], the abundance fitness was -0.084 ± 0.12.

For SGWQYDTQCSLAGVGIEMGDWQEVWPENTGCYYYWNTQTNEVTWELPQYLATQVQGLQHYQP [D26P], the abundance fitness was -1.14 ± 0.19.

As to SGWQYDTQCSLAGVGIEMGDWQEVWTENTGCYYYWNTQTNEVTWELPQYLATQVQGLQHYQP [D26T], the abundance fitness was -0.178 ± 0.093.

For the variant SGWQYDTQCSLAGVGIEMGDWQEVIDENTGCYYYWNTQTNEVTWELPQYLATQVQGLQHYQP [W25I], the abundance fitness is -0.251 ± 0.24.

SGWQYDTQCSLAGVGIEMGDWQEVHDENTGCYYYWNTQTNEVTWELPQYLATQVQGLQHYQP [W25H]: the abundance fitness is -0.256 ± 0.23.

As for SGWQYDTQCSLAGVGIEMGDWQEVPDENTGCYYYWNTQTNEVTWELPQYLATQVQGLQHYQP [W25P], the abundance fitness is -0.376 ± 0.14.

As to SGWQYDTQCSLAGVGIEMGDWQEVRDENTGCYYYWNTQTNEVTWELPQYLATQVQGLQHYQP [W25R], the abundance fitness is -0.287 ± 0.075.

With SGWQYDTQCSLAGVGIEMGDWQEVSDENTGCYYYWNTQTNEVTWELPQYLATQVQGLQHYQP [W25S], the abundance fitness is -0.294 ± 0.083.

On to SGWQYDTQCSLAGVGIEMGDWQEVFDENTGCYYYWNTQTNEVTWELPQYLATQVQGLQHYQP [W25F], for which the abundance fitness was -0.142 ± 0.12.

As for SGWQYDTQCSLAGVGIEMGDWQEVEDENTGCYYYWNTQTNEVTWELPQYLATQVQGLQHYQP [W25E], the abundance fitness is -0.414 ± 0.1.

On to SGWQYDTQCSLAGVGIEMGDWQEVMDENTGCYYYWNTQTNEVTWELPQYLATQVQGLQHYQP [W25M], for which the abundance fitness is -0.129 ± 0.11.

For SGWQYDTQCSLAGVGIEMGDWQEVLDENTGCYYYWNTQTNEVTWELPQYLATQVQGLQHYQP [W25L], the abundance fitness was -0.119 ± 0.071.

As to SGWQYDTQCSLAGVGIEMGDWQEVDDENTGCYYYWNTQTNEVTWELPQYLATQVQGLQHYQP [W25D], the abundance fitness was -0.252 ± 0.19.

Take SGWQYDTQCSLAGVGIEMGDWQEVTDENTGCYYYWNTQTNEVTWELPQYLATQVQGLQHYQP [W25T]: the abundance fitness was -0.381 ± 0.11.

With SGWQYDTQCSLAGVGIEMGDWQEVKDENTGCYYYWNTQTNEVTWELPQYLATQVQGLQHYQP [W25K], the abundance fitness was -0.014 ± 0.098.

As to SGWQYDTQCSLAGVGIEMGDWQEVCDENTGCYYYWNTQTNEVTWELPQYLATQVQGLQHYQP [W25C], the abundance fitness is -0.263 ± 0.15.

Turning to SGWQYDTQCSLAGVGIEMGDWQEVADENTGCYYYWNTQTNEVTWELPQYLATQVQGLQHYQP [W25A], the abundance fitness is -0.207 ± 0.088.

With SGWQYDTQCSLAGVGIEMGDWQEVVDENTGCYYYWNTQTNEVTWELPQYLATQVQGLQHYQP [W25V], the abundance fitness is -0.358 ± 0.09.

On to SGWQYDTQCSLAGVGIEMGDWQEVNDENTGCYYYWNTQTNEVTWELPQYLATQVQGLQHYQP [W25N], for which the abundance fitness was -0.853 ± 0.23.

On to SGWQYDTQCSLAGVGIEMGDWQEVYDENTGCYYYWNTQTNEVTWELPQYLATQVQGLQHYQP [W25Y], for which the abundance fitness is -0.209 ± 0.17.

As for SGWQYDTQCSLAGVGIEMGDWQEVGDENTGCYYYWNTQTNEVTWELPQYLATQVQGLQHYQP [W25G], the abundance fitness was -0.557 ± 0.076.

Source of the values: the Human Domainome abundance scans (Beltran et al. 2025).
